The nanobody polyreactivity screen of Harvey et al. (2022)

Test: yeast display, Sf9 membrane polyspecificity reagent, FACS + sequencing; frameworks hold sequencing errors
Outline: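 Using colony PCR, genes from sorted yeast display clones were amplified, then sequenced on MiSeq at 2 × 250 and filtered by CDR length. The clones had been stained with 10% biotinylated, detergent-solubilized Sf9 membrane reagent for 1 hour at 4 °C and sorted by FACS into low and high (top ~1%) gates on anti-HA and streptavidin fluorescence. Polyreactivity labels come from the gate of origin.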

QVQLVESGGGLVQAGGSLRLSCAASGSIFGGYAMGWYRQAPGKERELVAGITYSGDSTYYADSVKGRFTISRDNAKNTVYLQMNSLKPEDTAVYYCNADQRVDHDDFDYWGQGTQVTVSS
polyreactivity (PSR sort gate): low polyreactivity

QVQLVESGGGLVQAGGSLRLSCAASGLTFDSYTMGWYRQAPGKERELVAAITNSGGSTYYADSVKGRFTISRDNAKNTVYLQMNSLKPEDTAVYYCAAFRTSRLYGGSYGYWGQGTQVTVSS
polyreactivity (PSR sort gate): high polyreactivity

QVQLVESGGGLVQAGGSLRLSCAASGRTFTGNAMGWYRQAPGKVRELVADINLSGGDTYYADSVKGRFTISRDNAKNTVYLQMNSLKPEDTAVYYCAADIVYSSDYGPGDYWGQGTQVTVSS
polyreactivity (PSR sort gate): high polyreactivity

QVQLVESGGGLVQAGGSLRLSCADSGRIFQPNVMGWYRQAPGKERELVAAIRSGSSTYYADSVKGRFTISRDNAKNTVYLQMNSLKPEDTAVYYCATRRAGRGYDYWGQGTQVTVSS
polyreactivity (PSR sort gate): high polyreactivity

QVQLVESGGGLVQAGGSLRLSCAASGRTLVLNMGWYRQAPGKERELVATINSGGSTYYADSVKGRFTISRDNAKNTVYLQMNSLKPEDTAVYYCAVLSSDGKFDYWGQGTQVTVSS
polyreactivity (PSR sort gate): low polyreactivity

QVQLVESGGGLVLAGASLRLSCAPSGFIFVRYAMGWYRAAPGKERELVAAISSGGSTKYADSVKGRFTISRDNAKNTVYLQMNSLKPEDTAVYYCAADATPGRGVDYWGQGTQVTVSS
polyreactivity (PSR sort gate): high polyreactivity

QVQLVESGGGLFQAGGSLRLSCAASGSIFTRYAMGWYRQAPGKERELVAAISNRGGRTYYADSVKGRFTISRDNAKNTVYLQMNILKPEDTAVYYCNAATTRRIPQSDNYWGQGTQVTVSS
polyreactivity (PSR sort gate): high polyreactivity

QVQLGESGEGLVQAGGSLRLSCAASGFTCGYYTMGLYRQAPGKERELVAAISSSGGRTYYADSVKGRFTISRDNAKNSVYFQMNSLKPEDTAVYYCNVYYISTDLYYWGQGTQVTVSS
polyreactivity (PSR sort gate): high polyreactivity

QVQLVESGGGLVQAGGRLRLSCAASGITFQPNAMGWYRQAPGKERELVARITRGGGRTYYADSVKGRFTISRDNAKNTVYLLMHSLKPEDTAVYYCAADYSYIYGFDYWGQGTQVTVSS
polyreactivity (PSR sort gate): low polyreactivity

QVQLVESGGGLVQAGGSLRLSCAASGRIFRPNAMGWYRQAPGKEREFVAAITSSSGTTYYADSVKGRFTISRDNAKNTVYLQMNSLKPEDTAVYYCAAAQRSVRLKFGYWGQGTQVTVSS
polyreactivity (PSR sort gate): high polyreactivity

QVQLVESGGGLVQAGGSLRLSCAASGRTFSYNTMGWYRQAPGKERELVAAIDSDGSTNYADSVKGRFTISRDNAKNTVYLQMNSLKPEDTAVYYCAADRFQCGFWWLEYWGQGTQVTVSS
polyreactivity (PSR sort gate): high polyreactivity

QVQLVESGGGLVQAGGSLRLSCADSGRTFYRNAMGWYRQAPGKERELVAAITWSAGSTYYADSVKGRFTISRDNAKNTVYLQMNSLKPEDSAVYYCAKYPSKSYVPGDYWGQGTQVTVSS
polyreactivity (PSR sort gate): low polyreactivity

QVQLVESGGGLVQAGGSLRLSCAASGSTLALNAIGWYRQAPGKEREFVADISWSGGDTYYADSVKGRFTISRDNAKNTVYLQMNILKPEDTAVYYCATDFSYQFQALEDDYWGQGTQVTVSS
polyreactivity (PSR sort gate): low polyreactivity

QVQLVESGGGLVQAGGSLRLSCAASGFTFWYYAMGWYRQAPGKERELVAAISSNGASTYYADSVKGRFTISRDNAKNTVYLQMNSLKPEDTAVYYCNAYYDTWDSAYDYDYWGQGTQVTVSS
polyreactivity (PSR sort gate): low polyreactivity

QVQLVESGGGLVQAGGSLRLSCAASGFIFKHYAMGWYRQAPGKERELVAAITISASRTYYADSVKGRFTISRDNAKNTVYLQMNSLKPEDTAVYYCARRLLRGSDWGQGTQVTVSS
polyreactivity (PSR sort gate): high polyreactivity

QVQLVESAGGLVQAGGSLSLSCAANGFTFTYYTMGWYRQAPGKERELVAAITENGGSTYYADSVKGRFTISRDNAKNTVYLQMNSLKPEDTAVYYCNARVWDYGGHGYDYWGQGTQVTVSS
polyreactivity (PSR sort gate): low polyreactivity

QVQLVESGGGLVQAGGSLRLSCAASGRIFYRYAMGWYRQAPGKERELVATITNGGSTNYADSVKGRFTISRDNAMITVYLQMNSLKPEDTAVYYCAASRSRYSVNCYNYWGQGTQVTLSS
polyreactivity (PSR sort gate): high polyreactivity

QVQLVESGGGLLQAGGSLRLSCAASGRIFNINAMGWYRQAPGKERELVAAISSGDSTYYADSVKGRFTISRDNAKNTVYLQMNSLKPEDSAVDYCNKDLYIWGHGTQVTVSS
polyreactivity (PSR sort gate): low polyreactivity

QVQLVESGGGLVQAGGSLRLSCAASGRTFYPYAMGWYRQAPGKERELVAAIDYSSATTYYADSVKGRFTISRDNAKNTVYLQMNSLKPEDTAVFYCARVGIGVGWTKLNYWGQGTQVTVSS
polyreactivity (PSR sort gate): low polyreactivity

QVQLVESGGGLVQAGGSLRLSCAASGRTFDNNAMGWYRQAPGKEREFVAAITTGVGSTYADSVKGRFTISRDNAKNTVYLQMNSLKPEDTAVYYCAADSYWLFDAYDYWGQGTQVTVSS
polyreactivity (PSR sort gate): low polyreactivity

QVQLVESGGGLVQAGGSLRLSFAASGSTFNVHAMGGYRQAPGKERELVAAITSSGGSTNYADSVKGRFTISRDTAKNSVYLQLNSLKPEDTAVYYCAADAIYFSRLNLGYDYWGQGTQVTVSS
polyreactivity (PSR sort gate): low polyreactivity

QVQLVESGGGLVQAGGSLRLSCAASGSTFGRYVMGWYRQAPGKERELVAAISYSGGRTYYADSVKGRFTISRDNAKNTVYLQMNSLKPEDTAVYYCAARVRTVRNTYYSWGQGTQVTVSS
polyreactivity (PSR sort gate): high polyreactivity

QDQLVESGGGLVQAGGSLRLSCAASGFTFSAYAMGWYRQAPGKERELVAAISTRGGSTRYADSVKGRFTISRDNAKNTVYLQMNSLKPEDTAVYYCAVEVYSYLYYETYPTEYEYWGQGTQVTVSS
polyreactivity (PSR sort gate): high polyreactivity

QDQHVESGGGLVQAGGSLRLICAASGFIFVTNTMGWYRQAPGTEWELVAAIRWSGGTTYYADSVKGRFTISRDNAMQTVYLQMNSLKPEDTAFYYCAARYGSRSSYLAYYYWGQGTQVTVSS
polyreactivity (PSR sort gate): high polyreactivity

QVQLVESGGGLVQAGGSLRLSCAASGRTFTWYAMGWYRQAPGKERELVAVISRGGSTNYADSVKGRFTISRDNAKNTVYLQMKSLKPEDTAVYYCAARGLYRARLKLDYWGQGTQVTVSS
polyreactivity (PSR sort gate): high polyreactivity

QVQLVESGGGLVQAGGSLRLSCAASGIIFFRNAMGWYRQAPGKERELVAAISSGGSTYYADSVKGRFTISRDNAKNTVYLQMNSLKPEDTAVYYCNKVVPLYYASYDYWGQVTQVTVSS
polyreactivity (PSR sort gate): low polyreactivity

QVQLVESGGGLVQAGGSLRRSCAAYGRIFTMNAMGWYRQAPGKESELVAVISRSGCSTYYADSVKGRFTISRDNAKNTVYLQMNSLNPEDTAVYYCNAVPIYYAWRRNKPFDYWGLGTQVTVSS
polyreactivity (PSR sort gate): low polyreactivity

QVQLVESGGGLVQAGGSLRLSCAASGSIFYSNAMGWYRQAPGKERELVAAINWRGGSTYYADSVKGRFTISRDYAKNTVYLQMNSLKPEDTAVYYCNADSYDEIKYGYWGQGTQVTVSS
polyreactivity (PSR sort gate): low polyreactivity

QFQLVESGGGLDQARGSLRLTCAASGSIFARNAMGWYRQAPGKERELVAAITYSGGNTYYADSVKGRFTISRDNAKNTVYLQMNSLKPEDTAVYYCNKDWYPTYAAYNYYYWGQGTQVTVSS
polyreactivity (PSR sort gate): high polyreactivity

QVQLVESGGGLVQAGGSLRLSGAASGFIFAAYAMGWYRQAPGKERELVASISNGGGSTYYADSVKGRYTISRDNAKNTVYLQMNSQNPEVSAVYYCNARQYYAVTRKYYVRLDYWGQGTQVTVES
polyreactivity (PSR sort gate): high polyreactivity

QVQLVESGGGLVPAGGSLRLSCAASGSTFHYYTMGWYRQAPGKERELVAAISWRGTSTYYADSVKGRFTISRDNAKNTVYLQMNSLKAEDTGVYYCAVRSSPGAGYYYWGQGTQVTVSS
polyreactivity (PSR sort gate): high polyreactivity

QVQLVESGRGLVQAGGSLRLSCAASGSTFLDYAMGWYRQAPGKERELVAAINGSGSRTYYADSVKGRFTISRDNAKNTVYLQMNRLKPEDTAVYYCAHEYGYWGQGTQVTVSS
polyreactivity (PSR sort gate): low polyreactivity

QVQLVESGGGLVQAGGSLRLSCAASGRILIGNALGWYRQAPGKERELVAAISKRGGSTYYADSVKGRFTMSRDNAKNTDYLHMNSLKPEDTAVYYCNIESLYREFDYWGQGTLVTVSS
polyreactivity (PSR sort gate): low polyreactivity

QVQLVESGGGLVQAGGSLRLSCAASGSIFHIYAMGWYRQAPGKERELVAAISSGGRTNYADSVKGRFTISRDNAKNTVYLQMNSLKPEDTEVYYCAADWIYLPTRNYRVRVDYWGQGTQVTVSS
polyreactivity (PSR sort gate): high polyreactivity

QVQLVESGGGLVQAGGSLRLSCAASGRIFGAYTMGWYRQEPGKERELVAAISDGGDTYYADSVKGRFTISRDNAKNTVYFQMNRVKPEDTAVYYCAADAPYYAYYWFPSSFGIYGYWGQGTQVTVSS
polyreactivity (PSR sort gate): low polyreactivity

QVQLVESGGGLVQAGGSLRLSCAASGSISPANTMGWYRQAPGKEREFVAGISRRGGRTYYADSVKGRFTISRDNAKNTVYLQMNSLIPEDTAVYYCATALIVRGPSRYEYWGQGTQVTVSS
polyreactivity (PSR sort gate): high polyreactivity

QVQLVESGGGLVQAGGSLRLISAASGSIFVGNAMGWYRQSPGKERELVAAISRSGGRTYYADSVKGRFTISRDNAKNTVYLQMNSLKPEDTAVYYCNAYGWEQRQMDSWGQGTQVTVSS
polyreactivity (PSR sort gate): high polyreactivity

QVQLVESCGGLVQAGGSLRLSCAASGFTFPYYTMGWYRQAPGKERELVATITGGGSTNYADSVKGRFTISRDNAKNTVYLQKNSLKPEDTAVYYCAAKRWSGYGYYGWYDYWGQGTQVTVSS
polyreactivity (PSR sort gate): high polyreactivity

QVQLVESVGVLVQAGGSLRLSCAASGLIIDGYAMGWYRQAPGKERELVATITVSGTSTYYADSVKGRFTISRDNEKNTVYLQMNSLIPEDTAVYYCATDRNYGYYFVEYDHDYWGQGTQVTVSS
polyreactivity (PSR sort gate): low polyreactivity

QVQLVESGGGLLQAGGSLRLSCAASGFIFADYMGWNRQAPGKERELVASISSTGSSTYADSVKGRFTISRDNPKNTVYLQMNSLKPEDTAVSYCAATGVWYSWYEYASEYDYWGLGTQVTVSS
polyreactivity (PSR sort gate): high polyreactivity

QVQLVESGGGLVQAGGSLRLSCAASVYIFQSNVMGWYRQAPGKESELLAAITVSGGSTYYADSVKGRFTISRDNGKNTVYLQMKSLKPEDTAVYYCNKVGVKFRVDGWYDYWGQATQVTVSS
polyreactivity (PSR sort gate): high polyreactivity

QLQLVESGGGLVQAGGSLRLSCAASGSTFYLYDLGWYIQAPGKESELVAAITSSGGSTYYADSVKGRFTISLDNAKNTVYLQMTSLKPEDTAVYYCAARYRGWVYSYDYWGQGTQVTVSS
polyreactivity (PSR sort gate): low polyreactivity

QVQLVESGGGLVQAGGSLRLSCAASGSIFEWYAMGWYRQAPGKERELVADITNNGGSTYYADSVKGRFTISRDNAKNTVYLQMNSLKPEDTAVYYCAADYFDQVPDYYYASEYGYWGQGTQVTVSS
polyreactivity (PSR sort gate): low polyreactivity
